Source: paper PMC2795164, “VEZF1 Elements Mediate Protection from DNA Methylation”

T1: VEZF1 (BGP1) (Gallus gallus (chicken), UniProt I6LDD9 1-555)
T1 sequence: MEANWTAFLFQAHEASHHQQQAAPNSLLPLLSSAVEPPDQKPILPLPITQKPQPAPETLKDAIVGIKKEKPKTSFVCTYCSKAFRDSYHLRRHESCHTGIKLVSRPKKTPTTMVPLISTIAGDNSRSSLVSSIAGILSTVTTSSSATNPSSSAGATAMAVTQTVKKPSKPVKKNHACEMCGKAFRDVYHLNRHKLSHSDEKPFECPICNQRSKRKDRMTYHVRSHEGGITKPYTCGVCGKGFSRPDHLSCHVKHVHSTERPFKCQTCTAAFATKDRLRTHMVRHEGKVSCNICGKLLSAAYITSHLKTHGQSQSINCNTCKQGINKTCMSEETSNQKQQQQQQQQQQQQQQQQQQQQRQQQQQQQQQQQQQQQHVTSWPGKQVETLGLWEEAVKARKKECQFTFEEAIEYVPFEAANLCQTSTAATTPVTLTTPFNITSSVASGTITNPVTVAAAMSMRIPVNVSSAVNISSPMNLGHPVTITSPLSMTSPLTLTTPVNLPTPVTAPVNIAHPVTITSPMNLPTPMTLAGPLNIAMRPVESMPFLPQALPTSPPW

T2: ZF5, recombinant (Gallus gallus (chicken), UniProt Q92010 1-448, R436A)
T2 sequence: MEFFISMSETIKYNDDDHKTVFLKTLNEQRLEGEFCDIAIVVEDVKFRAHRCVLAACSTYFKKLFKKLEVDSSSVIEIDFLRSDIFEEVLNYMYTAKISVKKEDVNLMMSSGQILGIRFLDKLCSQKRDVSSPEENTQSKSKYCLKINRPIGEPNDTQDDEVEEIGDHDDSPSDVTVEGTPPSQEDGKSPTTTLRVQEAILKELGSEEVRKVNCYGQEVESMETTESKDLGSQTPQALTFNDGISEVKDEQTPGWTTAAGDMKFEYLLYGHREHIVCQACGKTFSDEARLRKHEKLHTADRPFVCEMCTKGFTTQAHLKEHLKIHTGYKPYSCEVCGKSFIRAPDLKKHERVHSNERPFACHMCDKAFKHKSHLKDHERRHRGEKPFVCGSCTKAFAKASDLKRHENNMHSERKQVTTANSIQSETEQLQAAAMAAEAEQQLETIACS

B1: HS4 FIII wt (dsDNA)
DNA 1: AGGCGCGCCCCGGTCCGGCGCTCCCCCCGCATCCCCGAGCCGGGGCGCGCCT
DNA 2: AGGCGCGCCCCGGCTCGGGGATGCGGGGGGAGCGCCGGACCGGGGCGCGCCT
B2: HS4 FV wt (dsDNA)
DNA 1: CCTGCAGACACCTGGGGGGATACGGGGAAAAAGCTTTAGG
DNA 2: CCTAAAGCTTTTTCCCCGTATCCCCCCAGGTGTCTGCAGG
B3: HS4 FI wt (dsDNA)
DNA 1: GGAGCTCACGGGGACAGCCCCCCCCCAAAGCCCCCAGGGA
DNA 2: TCCCTGGGGGCTTTGGGGGGGGGCTGTCCCCGTGAGCTCC
B4: glo wt (betaA-globin promoter, G16) (dsDNA)
DNA 1: AATTGCAGAGCTGGGAATCGGGGGGGGGGGGGGGGCGGGTGGTGGTGTGG
DNA 2: CCACACCACCACCCGCCCCCCCCCCCCCCCCGATTCCCAGCTCTGCAATT

Columns and labels:
[1] = molecular target: T1, VEZF1 (BGP1); test: EMSA; EMSA buffer, salt, pH and temperature not given in the material; competitors at 50-fold molar excess; conditions: protein: ivt; label: 32P (probe); blunt
[2] = molecular target: SP1, recombinant (Gallus gallus (chicken), UniProt A0A8V1A4P9 1-760); test: as above; conditions: protein: recombinant; label: 32P (probe); blunt
Sequence of SP1, recombinant (A0A8V1A4P9 entry or part of it): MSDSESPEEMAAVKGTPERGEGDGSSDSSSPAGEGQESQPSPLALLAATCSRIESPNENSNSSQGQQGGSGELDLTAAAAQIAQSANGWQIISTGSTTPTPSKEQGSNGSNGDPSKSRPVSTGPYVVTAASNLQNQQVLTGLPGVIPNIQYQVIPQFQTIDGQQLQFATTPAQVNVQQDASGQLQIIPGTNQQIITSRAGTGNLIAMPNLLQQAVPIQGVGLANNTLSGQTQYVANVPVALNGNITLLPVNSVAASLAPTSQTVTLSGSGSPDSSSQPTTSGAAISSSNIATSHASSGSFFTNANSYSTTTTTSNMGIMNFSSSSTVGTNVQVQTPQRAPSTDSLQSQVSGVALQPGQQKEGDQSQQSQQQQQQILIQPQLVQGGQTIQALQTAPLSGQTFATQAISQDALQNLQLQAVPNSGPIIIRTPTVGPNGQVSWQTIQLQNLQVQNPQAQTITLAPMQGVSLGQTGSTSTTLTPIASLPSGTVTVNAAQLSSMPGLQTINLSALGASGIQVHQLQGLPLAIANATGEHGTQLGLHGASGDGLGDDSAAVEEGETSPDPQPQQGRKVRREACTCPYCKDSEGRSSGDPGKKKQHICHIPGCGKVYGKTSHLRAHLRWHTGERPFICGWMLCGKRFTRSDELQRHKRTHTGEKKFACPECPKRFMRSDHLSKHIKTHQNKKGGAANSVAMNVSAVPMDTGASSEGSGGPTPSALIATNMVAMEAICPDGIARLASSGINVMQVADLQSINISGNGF

[3] = molecular target: SP3, recombinant (Gallus gallus (chicken), UniProt Q90WR8 1-771); test: as above; conditions: protein: recombinant; label: 32P (probe); blunt
Sequence of SP3, recombinant (Q90WR8 whole entry): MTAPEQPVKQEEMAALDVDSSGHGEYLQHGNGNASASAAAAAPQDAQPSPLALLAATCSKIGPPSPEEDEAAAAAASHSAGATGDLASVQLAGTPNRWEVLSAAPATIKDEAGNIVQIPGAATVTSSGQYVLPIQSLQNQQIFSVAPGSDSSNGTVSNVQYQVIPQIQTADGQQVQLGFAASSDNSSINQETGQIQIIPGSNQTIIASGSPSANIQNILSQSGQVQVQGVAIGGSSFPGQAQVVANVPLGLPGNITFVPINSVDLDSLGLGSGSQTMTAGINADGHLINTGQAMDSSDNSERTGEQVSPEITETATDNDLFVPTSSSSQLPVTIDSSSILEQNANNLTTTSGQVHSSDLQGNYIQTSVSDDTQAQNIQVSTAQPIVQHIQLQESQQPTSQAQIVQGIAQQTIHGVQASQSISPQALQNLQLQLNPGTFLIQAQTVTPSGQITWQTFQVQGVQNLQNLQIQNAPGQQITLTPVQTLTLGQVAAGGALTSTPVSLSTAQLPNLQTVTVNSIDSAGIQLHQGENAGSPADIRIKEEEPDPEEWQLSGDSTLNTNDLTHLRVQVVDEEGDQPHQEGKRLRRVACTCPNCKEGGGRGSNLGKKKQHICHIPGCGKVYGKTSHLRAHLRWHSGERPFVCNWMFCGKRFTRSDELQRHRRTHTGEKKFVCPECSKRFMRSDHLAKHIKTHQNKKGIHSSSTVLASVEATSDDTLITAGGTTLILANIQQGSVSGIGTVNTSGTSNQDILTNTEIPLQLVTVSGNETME

[4] = molecular target: T2, ZF5, recombinant; test: EMSA; no specificity for the dG-dC string; EMSA buffer, salt, pH and temperature not given in the material; competitors at 50-fold molar excess; conditions: protein: recombinant; label: 32P (probe); blunt
[5] = molecular target: T2, ZF5, recombinant; test: EMSA; EMSA buffer, salt, pH and temperature not given in the material; competitors at 50-fold molar excess; conditions: protein: recombinant; label: 32P (probe); blunt
[6] = molecular target: T1, VEZF1 (BGP1); test: as above; conditions: protein: ivt; label: 32P (probe); blunt; remark: listed apart in the source

Binder | binding signal [1] | binding result [2] | binding result [3] | binding result [4] | binding result [5] | binding result [6]
B1 | ~2 fold lower affinity than FI and betaA sites | no binding | no binding | binds | – | –
B2 | ~5 fold lower affinity than FI and betaA sites | no binding | no binding | – | – | –
B3 | – | binds | binds | – | no binding | binds
B4 | – | binds | binds | – | – | binds
